Measurements: PMC8589836, “A viral genome packaging ring-ATPase is a flexibly coordinated pentamer” (Nature Communications, 2021)

B1: SNAP-gp17 (SNAP-tagged full-length wild-type phage T4 large terminase gp17, labelled with SNAP-Surface 549) (enzyme, bacteriophage T4, UniProt P17312 1-610, looked up)
chain: MEQPINVLNDFHPLNEAGKILIKHPSLAERKDEDGIHWIKSQWDGKWYPEKFSDYLRLHKIVKIPNNSDKPELFQTYKDKNNKRSRYMGLPNLKRANIKTQWTREMVEEWKKCRDDIVYFAETYCAITHIDYGVIKVQLRDYQRDMLKIMSSKRMTVCNLSRQLGKTTVVAIFLAHFVCFNKDKAVGILAHKGSMSAEVLDRTKQAIELLPDFLQPGIVEWNKGSIELDNGSSIGAYASSPDAVRGNSFAMIYIDECAFIPNFHDSWLAIQPVISSGRRSKIIITTTPNGLNHFYDIWTAAVEGKSGFEPYTAIWNSVKERLYNDEDIFDDGWQWSIQTINGSSLAQFRQEHTAAFEGTSGTLISGMKLAVMDFIEVTPDDHGFHQFKKPEPDRKYIATLDCSEGRGQDYHALHIIDVTDDVWEQVGVLHSNTISHLILPDIVMRYLVEYNECPVYIELNSTGVSVAKSLYMDLEYEGVICDSYTDLGMKQTKRTKAVGCSTLKDLIEKDKLIIHHRATIQEFRTFSEKGVSWAAEEGYHDDLVMSLVIFGWLSTQSKFIDYADKDDMRLASEVFSKELQDMSDDYAPVIFVDSVHSAEYVPVSHGMSMV
modifications: SNAP-Surface 549 fluorophore (called Cy3 in the paper) on the SNAP-tag
notes: Large terminase gp17 of bacteriophage T4, full-length wild type, amplified from pET15-gp17 and inserted into pET-SNAP; Order on the chain as printed: SNAP-tag, hexa-histidine tag, full-length gp17; Added as a monomer; it assembles into the motor on the T4 head; also called WT gp17; Cy3-labeled gp17; not shown: SNAP-tag, N-terminal, kept
B2: SNAP-Q163A-gp17 (ATPase-defective Walker A P-loop mutant of SNAP-tagged gp17, labelled with SNAP-Surface 549) (enzyme, bacteriophage T4, UniProt P17312 1-610, looked up)
chain: MEQPINVLNDFHPLNEAGKILIKHPSLAERKDEDGIHWIKSQWDGKWYPEKFSDYLRLHKIVKIPNNSDKPELFQTYKDKNNKRSRYMGLPNLKRANIKTQWTREMVEEWKKCRDDIVYFAETYCAITHIDYGVIKVQLRDYQRDMLKIMSSKRMTVCNLSRALGKTTVVAIFLAHFVCFNKDKAVGILAHKGSMSAEVLDRTKQAIELLPDFLQPGIVEWNKGSIELDNGSSIGAYASSPDAVRGNSFAMIYIDECAFIPNFHDSWLAIQPVISSGRRSKIIITTTPNGLNHFYDIWTAAVEGKSGFEPYTAIWNSVKERLYNDEDIFDDGWQWSIQTINGSSLAQFRQEHTAAFEGTSGTLISGMKLAVMDFIEVTPDDHGFHQFKKPEPDRKYIATLDCSEGRGQDYHALHIIDVTDDVWEQVGVLHSNTISHLILPDIVMRYLVEYNECPVYIELNSTGVSVAKSLYMDLEYEGVICDSYTDLGMKQTKRTKAVGCSTLKDLIEKDKLIIHHRATIQEFRTFSEKGVSWAAEEGYHDDLVMSLVIFGWLSTQSKFIDYADKDDMRLASEVFSKELQDMSDDYAPVIFVDSVHSAEYVPVSHGMSMV
modifications: SNAP-Surface 549 fluorophore (called Cy3 in the paper) on the SNAP-tag
notes: Large terminase gp17 of bacteriophage T4, full length, with Q163A; made by overlap PCR with the SNAP-gp17 construct as template; also called Q163A mutant; not shown: SNAP-tag, N-terminal, kept

Assays:
[1] = target: the molecule itself; assay: single-molecule TIRF fluorescence (Cy3 photobleaching step counting); motors assembled from T4 heads, Cy3-labelled SNAP-gp17 monomer (2-5 uM), 1 mM ATP-gammaS and 120-bp DNA; heads held on a PEG surface by anti-T4 polyclonal antibody; only spots with packaged Cy5-DNA counted; binomial fit of step counts (486 trajectories); room temperature
[2] = target: T1, WT-gp17 (His-tagged, unlabeled wild-type phage T4 gp17) (bacteriophage T4, UniProt P17312 1-610); assay: single-molecule TIRF fluorescence (Cy3 photobleaching step counting); only the inactive SNAP-Q163A-gp17 labelled with Cy3, mixed with unlabeled WT gp17 and assembled on T4 heads; heads held on a PEG surface by anti-T4 antibody; Cy5-DNA and ATP flowed in, DNase I after ~10 min; Cy3 and Cy5 spots colocalised (2405 trajectories); room temperature; settings: both partners purified
T1 construct: Large terminase gp17 of bacteriophage T4; also called unlabeled WT gp17; source: E. coli BL21 (DE3) pLysS or codon-plus BL21 (DE3) RIPL, purified (HisTrap, Superdex-200 SEC)

[3] = target: the molecule itself; assay: not stated; assembly of the Q163A mutant into a pentamer; shown only in Supplementary Fig. 3b-g

Row | Binder | stoichiometry N [1] | binding result [2] | stoichiometry N [3]
1 | B1 | 5 |  | 
2 | B2 |  | binds | 5
